Target: T1, human C5aR (CD88) (human, UniProt P21730 1-350)
T1 sequence (looked up): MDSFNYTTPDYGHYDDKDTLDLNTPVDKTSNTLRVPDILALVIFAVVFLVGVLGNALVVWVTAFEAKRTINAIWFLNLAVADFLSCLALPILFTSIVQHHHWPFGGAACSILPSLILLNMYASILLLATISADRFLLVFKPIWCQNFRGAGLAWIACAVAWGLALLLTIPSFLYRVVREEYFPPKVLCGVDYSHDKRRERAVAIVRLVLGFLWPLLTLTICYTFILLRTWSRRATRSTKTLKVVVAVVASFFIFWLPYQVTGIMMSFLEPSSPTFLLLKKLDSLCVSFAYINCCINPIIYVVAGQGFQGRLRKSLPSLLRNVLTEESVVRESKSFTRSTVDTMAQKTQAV
Assay: cell-based or functional assay

Substance | EC50, agonistic activity, enzyme release assay [nM] | IC50 activity group, enzyme release assay [nM] | IC50, functional assay [nM]
Ac-Phe-Orn-Pip-cha-Trp-Phe-NH2 (peptide) | > 100000 | < 50 | –
Ac-Phe-Orn-Pip-cha-Trp-Phe-OH (peptide) | – | < 2000 | –
Ac-Phe-Orn-Pro-Cha-Bta-NH-NBn-CO-NH2 (peptide) | – | < 200 | –
Ac-Phe-Orn-Pro-cha-1Ni-Phe-NH2 (peptide) | – | < 200 | –
Ac-Phe-Orn-Pro-cha-Bta-1Ni-NH2 (peptide) | – | < 200 | –
Ac-Phe-Orn-Pro-cha-Bta-2Ni-NH2 (peptide) | – | < 50 | –
Ac-Phe-Orn-Pro-cha-Bta-Bhf-NH2 (peptide) | – | < 50 | –
Ac-Phe-Orn-Pro-cha-Bta-Cha-NH2 (peptide) | – | < 200 | –
Ac-Phe-Orn-Pro-cha-Bta-Dff-NH2 (peptide) | – | < 50 | –
Ac-Phe-Orn-Pro-cha-Bta-Eaa-NH2 (peptide) | – | < 200 | –
Ac-Phe-Orn-Pro-cha-Bta-Mcf-NH2 (peptide) | – | < 200 | –
Ac-Phe-Orn-Pro-cha-Bta-Mff-NH2 (peptide) | – | < 20 | –
Ac-Phe-Orn-Pro-cha-Bta-NH-CH(CH2OH)-CH2-Ph (peptide) | – | < 200 | –
Ac-Phe-Orn-Pro-cha-Bta-Opa-NH2 (peptide) | – | < 200 | –
Ac-Phe-Orn-Pro-cha-Bta-Pcf-NH2 (peptide) | – | < 50 | –
Ac-Phe-Orn-Pro-cha-Bta-Phe-NH2 (peptide) | > 100000 | < 50 | –
Ac-Phe-Orn-Pro-cha-Bta-Pmf-NH2 (peptide) | – | < 50 | –
Ac-Phe-Orn-Pro-cha-Bta-Thi-NH2 (peptide) | – | < 20 | –
Ac-Phe-Orn-Pro-cha-Otf-Phe-NH2 (peptide) | – | < 200 | –
Ac-Phe-Orn-Pro-ctb-Bta-Phe-NH2 (peptide) | – | < 50 | –
Ac-Phe-Orn-Pro-ctb-Eaa-Phe-NH2 (peptide) | – | < 50 | –
Ac-Phe-Orn-Pro-ctb-Mcf-Phe-NH2 (peptide) | – | < 200 | –
Ac-Phe-Orn-Pro-ctb-Pff-Phe-NH2 (peptide) | – | < 50 | –
Ac-Phe-Orn-Pro-hle-1Ni-Phe-NH2 (peptide) | – | < 50 | –

Substance | EC50, agonistic activity, enzyme release assay [nM] | IC50 activity group, enzyme release assay [nM] | IC50, functional assay [nM]
Ac-Phe-Orn-Pro-hle-6FW-Phe-NH2 (peptide) | – | < 200 | –
Ac-Phe-Orn-Pro-hle-Bta-1Ni-NH2 (peptide) | – | < 200 | –
Ac-Phe-Orn-Pro-hle-Bta-2Ni-NH2 (peptide) | – | < 200 | –
Ac-Phe-Orn-Pro-hle-Bta-5Ff-NH2 (peptide) | – | < 200 | –
Ac-Phe-Orn-Pro-hle-Bta-Aic-NH2 (peptide) | – | < 200 | –
Ac-Phe-Orn-Pro-hle-Bta-Cha-NH2 (peptide) | – | < 200 | –
Ac-Phe-Orn-Pro-hle-Bta-Chg-NH2 (peptide) | – | < 200 | –
Ac-Phe-Orn-Pro-hle-Bta-Eaa-NH2 (peptide) | – | < 200 | –
Ac-Phe-Orn-Pro-hle-Bta-Egy-NH2 (peptide) | – | < 200 | –
Ac-Phe-Orn-Pro-hle-Bta-Pcf-NH2 (peptide) | – | < 200 | –
Ac-Phe-Orn-Pro-hle-Bta-Pff-NH2 (peptide) | – | < 200 | –
Ac-Phe-Orn-Pro-hle-Bta-Phe-NH2 (peptide) | – | < 20 | –
Ac-Phe-Orn-Pro-hle-Bta-Tyr-NH2 (peptide) | – | < 200 | –
Ac-Phe-Orn-Pro-hle-Bta-phe-OH (peptide) | – | < 200 | –
Ac-Phe-Orn-Pro-hle-Dff-Phe-NH2 (peptide) | – | < 200 | –
Ac-Phe-Orn-Pro-hle-Eaa-Phe-NH2 (peptide) | – | < 200 | –
Ac-Phe-Orn-Pro-hle-Egc-Phe-NH2 (peptide) | – | < 200 | –
Ac-Phe-Orn-Pro-hle-Egy-Phe-NH2 (peptide) | – | < 200 | –
Ac-Phe-Orn-Pro-hle-Egz-Phe-NH2 (peptide) | – | < 200 | –
Ac-Phe-Orn-Pro-hle-Mcf-2Ni-NH2 (peptide) | – | < 200 | –
Ac-Phe-Orn-Pro-hle-Mcf-Cha-NH2 (peptide) | – | < 50 | –
Ac-Phe-Orn-Pro-hle-Mcf-Pff-NH2 (peptide) | – | < 200 | –
Ac-Phe-Orn-Pro-hle-Mcf-Phe-NH2 (peptide) | – | < 200 | –
Ac-Phe-Orn-Pro-hle-Mff-Phe-NH2 (peptide) | – | < 200 | –

Substance | EC50, agonistic activity, enzyme release assay [nM] | IC50 activity group, enzyme release assay [nM] | IC50, functional assay [nM]
Ac-Phe-Orn-Pro-hle-Mmy-Phe-NH2 (peptide) | – | < 200 | –
Ac-Phe-Orn-Pro-hle-Ocf-Phe-NH2 (peptide) | – | < 200 | –
Ac-Phe-Orn-Pro-hle-Off-Phe-NH2 (peptide) | – | < 200 | –
Ac-Phe-Orn-Pro-hle-Otf-Phe-NH2 (peptide) | – | < 200 | –
Ac-Phe-Orn-Pro-hle-Pff-2Ni-NH2 (peptide) | – | < 200 | –
Ac-Phe-Orn-Pro-hle-Pff-Cha-NH2 (peptide) | – | < 200 | –
Ac-Phe-Orn-Pro-hle-Pff-Eaa-NH2 (peptide) | – | < 200 | –
Ac-Phe-Orn-Pro-hle-Pff-Mmy-NH2 (peptide) | – | < 200 | –
Ac-Phe-Orn-Pro-hle-Pff-Pff-NH2 (peptide) | – | < 200 | –
Ac-Phe-Orn-Pro-hle-Pff-Phe-NH2 (peptide) | – | < 200 | –
Ac-Phe-Orn-Pro-hle-Tff-Phe-NH2 (peptide) | – | < 200 | –
Ac-Phe-Orn-Pro-omf-Bta-Phe-NH2 (peptide) | – | < 200 | –
Ac-Phe-Orn-Ser-cha-Bta-Phe-NH2 (peptide) | – | < 50 | –
Ac-Phe-Orn-Tic-cha-Trp-Phe-NH2 (peptide) | – | < 200 | –
Ac-Phe-Orn-Tic-cha-Trp-Phe-OH (peptide) | – | < 2000 | –
Ac-Phe-Paf-Pro-cha-Bta-Phe-NH2 (peptide) | – | < 2000 | –
Ac-Phe-[Orn-Asn-cha-Trp-Nle] (peptide) | – | < 200 | –
Ac-Phe-[Orn-Aze-cha-Trp-Nle] (peptide) | – | < 200 | –
Ac-Phe-[Orn-Chy-cha-Trp-Nle] (peptide) | – | < 200 | –
Ac-Phe-[Orn-HyA-cha-Trp-Phe] (peptide) | – | < 200 | –
Ac-Phe-[Orn-Hyp(COCH2OCH2CH2OCH2CH2OCH3)-cha-Trp-Nle] (peptide) | – | < 200 | –
Ac-Phe-[Orn-Hyp(CONH-CH2CH(OH)-CH2OH)-cha-Trp-Nle] (peptide) | – | < 200 | –
Ac-Phe-[Orn-Hyp-Mmf-Trp-Nle] (peptide) | – | < 200 | –
Ac-Phe-[Orn-Hyp-Mmf-Trp-Phe] (peptide) | – | < 200 | –

Substance | EC50, agonistic activity, enzyme release assay [nM] | IC50 activity group, enzyme release assay [nM] | IC50, functional assay [nM]
Ac-Phe-[Orn-Hyp-cha-Trp-Nle] (peptide) | – | < 20 | –
Ac-Phe-[Orn-Hyp-cha-Trp-Phe] (peptide) | > 1430 | < 50 | –
Ac-Phe-[Orn-Hyp-hle-Bta-Phe] (peptide) | – | < 200 | –
Ac-Phe-[Orn-Hyp-hle-Mcf-Phe] (peptide) | – | < 200 | –
Ac-Phe-[Orn-Hyp-hle-Pff-Nle] (peptide) | – | < 200 | –
Ac-Phe-[Orn-Hyp-hle-Pff-Phe] (peptide) | – | < 200 | –
Ac-Phe-[Orn-Hyp-hle-Trp-Phe] (peptide) | – | < 50 | –
Ac-Phe-[Orn-NMD-cha-Trp-Nle] (peptide) | – | < 200 | –
Ac-Phe-[Orn-NMeAla-cha-Trp-Arg] (peptide) | – | < 50 | 25
Ac-Phe-[Orn-Pip-hle-Bta-Phe] (peptide) | – | < 200 | –
Ac-Phe-[Orn-Pro-cha-Pff-Nle] (peptide) | – | < 200 | –
Ac-Phe-[Orn-Pro-cha-Pff-Phe] (peptide) | – | < 200 | –
Ac-Phe-[Orn-Pro-hle-Bta-Nle] (peptide) | – | < 200 | –
Ac-Phe-[Orn-Pro-hle-Bta-Phe] (peptide) | – | < 200 | –
Ac-Phe-[Orn-Pro-hle-Pff-Phe] (peptide) | – | < 200 | –
Ac-Phe-[Orn-Ser-cha-Trp-Nle] (peptide) | – | < 200 | –
Ac-Phe-[Orn-Ser-hle-Trp-Nle] (peptide) | – | < 200 | –
Ac-Phe-[Orn-Thr-cha-Trp-Nle] (peptide) | – | < 200 | –
Ac-Phe-[Orn-Tic-cha-Trp-Nle] (peptide) | – | < 200 | –
Ac-Phg-Orn-Pro-cha-Bta-Phe-NH2 (peptide) | – | < 200 | –
Ac-Ser-Phe-Orn-Aze-cha-Bta-Phe-NH2 (peptide) | – | < 20 | –
Ac-Thi-Orn-Aze-cha-Bta-Phe-NH2 (peptide) | – | < 20 | –
Ac-Thi-Orn-Pip-cha-Bta-Phe-NH2 (peptide) | > 100000 | < 50 | –

From patent US7727960B2, “C5a receptor antagonists” (Jerini AG, priority 2003, dated 2010)
